# Reference: US20130195875A1
# Tests used:
# [1] = molecular target: ADM (human or mouse, not stated for this row); assay: cell-based or functional assay
# [2] = molecular target: human recombinant adrenomedullin receptor (CRLR+RAMP3) (human)
Maximal inhibition of ADM bioactivity (ADM-Bioassay) (%) [1],EC50 (read off the curve) [2],Substance
0%,–,Non specific mouse IgG (antibody)
–,1 nM,human adrenomedullin (hADM 1-52) (peptide)
